The source of these data is patent US20220233554.

The target of this data set is OCT4 wild-type in cells (human) (UniProt Q01860). The experiment in a line: cell_activity. To be noted: for binding signal: transcription activity relative to OBS1+OBS2.
Sequence of UniProt Q01860 (Q01860 whole entry): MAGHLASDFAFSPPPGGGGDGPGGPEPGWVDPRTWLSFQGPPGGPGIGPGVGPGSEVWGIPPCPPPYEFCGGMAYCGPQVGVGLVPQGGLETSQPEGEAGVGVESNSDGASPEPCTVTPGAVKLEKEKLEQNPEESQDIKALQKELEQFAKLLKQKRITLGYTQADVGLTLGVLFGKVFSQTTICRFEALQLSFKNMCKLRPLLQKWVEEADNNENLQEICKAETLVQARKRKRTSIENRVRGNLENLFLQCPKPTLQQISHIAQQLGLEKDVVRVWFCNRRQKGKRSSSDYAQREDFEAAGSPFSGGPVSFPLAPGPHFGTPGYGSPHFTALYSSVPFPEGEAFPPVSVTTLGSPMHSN

For the setting “luciferase reporter in HEK293FT vs vector control”, MYC -1/-1899 promoter reporter had an activity of 24.4 fold.

On to MYC OBS1 single-site reporter, for which the binding signal was determined as 60%.

MYC OBS2 single-site reporter had a binding signal of 40%.
